Numbering of substitutions follows the chain as printed.
T1: mouse FAPα on Expi293F cells (mouse (Mus musculus), UniProt P97321 1-761)
T1 sequence: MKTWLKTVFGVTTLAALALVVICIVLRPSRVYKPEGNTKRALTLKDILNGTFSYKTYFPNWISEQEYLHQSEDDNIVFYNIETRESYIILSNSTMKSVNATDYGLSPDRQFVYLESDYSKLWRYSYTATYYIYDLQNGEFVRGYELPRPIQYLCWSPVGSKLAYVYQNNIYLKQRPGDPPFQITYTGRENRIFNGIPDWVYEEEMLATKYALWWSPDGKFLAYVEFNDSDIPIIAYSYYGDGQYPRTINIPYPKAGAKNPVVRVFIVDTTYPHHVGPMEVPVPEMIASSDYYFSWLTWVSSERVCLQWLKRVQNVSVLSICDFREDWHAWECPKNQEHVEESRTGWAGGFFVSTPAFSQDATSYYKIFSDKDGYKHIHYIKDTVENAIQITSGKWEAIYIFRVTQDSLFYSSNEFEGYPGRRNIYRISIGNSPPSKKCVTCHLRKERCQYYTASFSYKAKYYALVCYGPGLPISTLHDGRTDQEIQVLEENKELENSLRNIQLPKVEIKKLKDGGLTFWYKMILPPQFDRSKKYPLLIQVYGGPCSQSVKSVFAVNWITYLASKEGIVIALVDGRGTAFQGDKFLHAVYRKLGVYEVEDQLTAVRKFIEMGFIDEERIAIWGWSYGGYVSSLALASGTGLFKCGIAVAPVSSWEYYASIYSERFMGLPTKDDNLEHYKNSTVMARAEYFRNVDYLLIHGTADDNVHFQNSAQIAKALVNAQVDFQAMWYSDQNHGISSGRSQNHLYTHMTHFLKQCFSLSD

T2: human DR4 (Death Receptor 4), cell surface expressed on human tumor cell lines (human, UniProt O00220 24-468)
T2 construct: also called TNFRSF10A; TRAIL-R1
T2 sequence: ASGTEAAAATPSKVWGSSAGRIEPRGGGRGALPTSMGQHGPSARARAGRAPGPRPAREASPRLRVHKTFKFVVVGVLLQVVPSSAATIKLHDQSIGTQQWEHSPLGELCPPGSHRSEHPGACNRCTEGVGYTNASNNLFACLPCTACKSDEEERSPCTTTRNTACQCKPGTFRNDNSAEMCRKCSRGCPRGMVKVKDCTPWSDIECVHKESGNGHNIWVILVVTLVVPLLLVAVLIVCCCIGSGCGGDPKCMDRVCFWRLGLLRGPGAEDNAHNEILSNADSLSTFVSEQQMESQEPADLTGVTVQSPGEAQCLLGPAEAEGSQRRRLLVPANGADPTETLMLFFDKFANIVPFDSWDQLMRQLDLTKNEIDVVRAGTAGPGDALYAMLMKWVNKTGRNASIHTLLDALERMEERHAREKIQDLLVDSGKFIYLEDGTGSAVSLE

B1: BisG1-FAPα-FEAL/b12-FEAR (bispecific antibody, human IgG1, kappa)
heavy 1: EVQLLESGGGLVQPGGSPRLSCEASGFTFSSYALSWVRQAPGKGLEWVSAISGSGGGRYYADSVKGRFTISRDNSKNTLFLQMNSLRAEDTAVYYCAKEGYSSSGTYWDHWGQGTLVTVSSASTKGPSVFPLAPSSKSTSGGTAALGCLVKDYFPEPVTVSWNSGALTSGVHTFPAVLQSSGLYSLSSVVTVPSSSLGTQTYICNVNHKPSNTKVDKRVEPKSCDKTHTCPPCPAPEFEGGPSVFLFPPKPKDTLMISRTPEVTCVVVAVSHEDPEVKFNWYVDGVEVHNAKTKPREEQYNSTYRVVSVLTVLHQDWLNGKEYKCKVSNKALPAPIEKTISKAKGQPREPQVYTLPPSREEMTKNQVSLTCLVKGFYPSDIAVEWESNGQPENNYKTTPPVLDSDGSFLLYSKLTVDKSRWQQGNVFSCSVMHEALHNHYTQKSLSLSPG
light 1: AIQMTQSPSSVSASVGDRVTITCRASQGVSSWLAWYQQKPGRAPKLLIYVASTLQSGVPSRFSGSGSGTDFTLTINSLQPEDFATYYCQQANSFPPTFGQGTRLEMKRTVAAPSVFIFPPSDEQLKSGTASVVCLLNNFYPREAKVQWKVDNALQSGNSQESVTEQDSKDSTYSLSSTLTLSKADYEKHKVYACEVTHQGLSSPVTKSFNRGEC
heavy 2: QVQLVQSGAEVKKPGASVKVSCQASGYRFSNFVIHWVRQAPGQRFEWMGWINPYNGNKEFSAKFQDRVTFTADTSANTAYMELRSLRSADTAVYYCARVGPYSWDDSPQDNYYMDVWGKGTTVIVSSASTKGPSVFPLAPSSKSTSGGTAALGCLVKDYFPEPVTVSWNSGALTSGVHTFPAVLQSSGLYSLSSVVTVPSSSLGTQTYICNVNHKPSNTKVDKRVEPKSCDKTHTCPPCPAPEFEGGPSVFLFPPKPKDTLMISRTPEVTCVVVAVSHEDPEVKFNWYVDGVEVHNAKTKPREEQYNSTYRVVSVLTVLHQDWLNGKEYKCKVSNKALPAPIEKTISKAKGQPREPQVYTLPPSREEMTKNQVSLTCLVKGFYPSDIAVEWESNGQPENNYKTTPPVLDSDGSFFLYSRLTVDKSRWQQGNVFSCSVMHEALHNHYTQKSLSLSPG
light 2: EIVLTQSPGTLSLSPGERATFSCRSSHSIRSRRVAWYQHKPGQAPRLVIHGVSNRASGISDRFSGSGSGTDFTLTITRVEPEDFALYYCQVYGASSYTFGQGTKLERKRTVAAPSVFIFPPSDEQLKSGTASVVCLLNNFYPREAKVQWKVDNALQSGNSQESVTEQDSKDSTYSLSSTLTLSKADYEKHKVYACEVTHQGLSSPVTKSFNRGEC
notes: Fab-arm exchange of IgG1-FAPα-FEAL and IgG1-b12-FEAR
B2: IgG1-FAPα-FERL (antibody)
heavy: B1 heavy 1 with G240R, A269D
light: B1 light 1
notes: Bivalent monoclonal IgG1 kappa
B3: IgG1-DR4-FERR (antibody, V domains shown)
VH: QVQLQESGPGLVKPSGTLSLTCAVSGGSISSYSWWSWIRQPPGKGLEWIGELYHSGSTNYNPSLKSRVTISVDKSKNQFSLKLRSVTAADTAVYYCVRGVATIDYWGQGTLVTVSS
VL: QSALTQPPSASGSPGQSVTISCTGTSSDVGGYNFVSWYQQDPGKAPKLLIYEVTKRPSGVPDRFSGSKSGNTASLTVSGLQAEDEADYYCSSYAGSNNVMFGGGTKLTVLG
notes: Bivalent monoclonal IgG1 lambda
B4: BisG1-b12-FERL/DR4-FERR (bispecific antibody, human IgG1, kappa, lambda)
heavy 1: B1 heavy 2 with G246R, A275D, F415L, R419K
light 1: B1 light 2
heavy 2: QVQLQESGPGLVKPSGTLSLTCAVSGGSISSYSWWSWIRQPPGKGLEWIGELYHSGSTNYNPSLKSRVTISVDKSKNQFSLKLRSVTAADTAVYYCVRGVATIDYWGQGTLVTVSSASTKGPSVFPLAPSSKSTSGGTAALGCLVKDYFPEPVTVSWNSGALTSGVHTFPAVLQSSGLYSLSSVVTVPSSSLGTQTYICNVNHKPSNTKVDKRVEPKSCDKTHTCPPCPAPEFERGPSVFLFPPKPKDTLMISRTPEVTCVVVDVSHEDPEVKFNWYVDGVEVHNAKTKPREEQYNSTYRVVSVLTVLHQDWLNGKEYKCKVSNKALPAPIEKTISKAKGQPREPQVYTLPPSREEMTKNQVSLTCLVKGFYPSDIAVEWESNGQPENNYKTTPPVLDSDGSFFLYSRLTVDKSRWQQGNVFSCSVMHEALHNHYTQKSLSLSPG
light 2: QSALTQPPSASGSPGQSVTISCTGTSSDVGGYNFVSWYQQDPGKAPKLLIYEVTKRPSGVPDRFSGSKSGNTASLTVSGLQAEDEADYYCSSYAGSNNVMFGGGTKLTVLGQPKAAPSVTLFPPSSEELQANKATLVCLISDFYPGAVTVAWKADSSPVKAGVETTTPSKQSNNKYAASSYLSLTPEQWKSHRSYSCQVTHEGSTVEKTVAPTECS
notes: Fab-arm exchange of IgG1-b12-FERL and IgG1-DR4-FERR; also called bsIgG1-ctrl-FERLxDR4-FERR

Tests used:
[1] = biological target: T1, mouse FAPα on Expi293F cells; experiment: flow cytometry on Expi293F cells transiently expressing mouse FAPα, gMFI PE
Protocol: Binding of BisG1-FAPα-FERL/DR4-FERR, BisG1-FAPα-FEAL/b12-FEAR and IgG1-FAPα-FERL to FAPα of species commonly used for nonclinical toxicology studies was assessed by flow cytometry using Expi293F cells transiently expressing FAPα from different animal species. IgG1-b12 was included as negative control.
Expi293F cells expressing recombinant FAPα from various species (human, cynomolgus monkey, dog, pig, rat or mouse) were seeded (20,000 cells/well) in 96-Well round bottom plates (Greiner Bio-one, Cat #650101). Antibody dilutions were prepared using FACS buffer, consisting of PBS (Capricorn Scientific, Cat #PBS-10XA, diluted to 1×PBS in distilled water)+1% BSA (Roche, Cat #10735086001)+0.02% Sodium Azide (Bio-World, Cat #41920044-3). Plates were centrifuged, supernatant was removed, and cells were resuspended in 100 μL of antibody dilutions (concentration range 30-0.00017 μg/mL with three-fold serial dilutions using FACS buffer) of BisG1-FAPα-FERL/DR4-FERR, BisG1-FAPα-FEAL/b12-FEAR, IgG1-FAPα-FERL and IgG1-b12 and incubated for 30 min at 4° C. […] After 30 min incubation at 4° C., cells were washed with FACS buffer and resuspended in FACS buffer supplemented with TO-PRO-3 Iodide viability marker (Invitrogen, Cat #T3605, diluted 1:4,000). Antibody binding to viable cells (gMFI of PE on TO-PRO-3 negative cells) was analyzed by flow cytometry on a FACS Celesta and FACS_Diva software (first two experiments) or iQue® 3 and FlowJo software (last experiment). gMFI was determined and visualized using GraphPad Prism. Binding curves were analyzed using nonlinear regression analysis. The concentration (pg/mL) at which 50% of the maximal effect was observed (EC₅₀) was derived from the fitted curves.

[2] = biological target: T2, human DR4 (Death Receptor 4), cell …; experiment: flow cytometry, DLD-1 cells, n = 3
[3] = biological target: T2, human DR4 (Death Receptor 4), cell …; experiment: flow cytometry, DLD-1 cells, n = 1
[4] = biological target: T2, human DR4 (Death Receptor 4), cell …; experiment: flow cytometry, HCT-15 cells, n = 2
[5] = biological target: T2, human DR4 (Death Receptor 4), cell …; experiment: flow cytometry, HCT-116 cells, n = 3
[6] = biological target: T2, human DR4 (Death Receptor 4), cell …; experiment: flow cytometry, PANC-1 cells, n = 2
[7] = biological target: T2, human DR4 (Death Receptor 4), cell …; experiment: flow cytometry, MDA-MB-231 cells, n = 1
[8] = biological target: T2, human DR4 (Death Receptor 4), cell …; experiment: flow cytometry, HCT-116 cells, n = 2

| Binder | binding result [1] | EC50 (read off the curve) [1] [µg/mL] | EC50 [2] [µg/mL] | EC50 [3] [µg/mL] | EC50 [4] [µg/mL] | EC50 [5] [µg/mL] | EC50 [6] [µg/mL] | EC50 [7] [µg/mL] | EC50 [8] [µg/mL] |
| --- | --- | --- | --- | --- | --- | --- | --- | --- | --- |
| B1 | binds | – | – | – | – | – | – | – | – |
| B2 | – | ~0.1 | – | – | – | – | – | – | – |
| B3 | – | – | 0.23 | 0.33 | 0.17 | 0.11 | 0.4 | 0.33 | 0.16 |
| B4 | – | – | 0.64 | 0.85 | 0.57 | 0.55 | 2.12 | 1.14 | 0.65 |

Reference: patent publication US20250002610A1 (Genmab, published 2025)
